Assay results reported in patent publication US20200308309A1 (Novartis, published 2020).
Values belong to the binder of their own block, whether it stands above or below them.

What was measured:
Recombinant human IL-18 = target: T1, Recombinant human IL-18 (human, UniProt Q14116 37-193); experiment: SET simultaneous target binding, Assay B (both targets in serial dilutions in one mix), ECL read-out
T1 construct: A biotinylated form (BTP25828) was coated on the read-out plate in the SET assay; The titrated antigen in solution is huIL-18; also called huIL-18

[1] = target: T2, Recombinant marmoset IL-18 (marmoset, UniProt U3CWC9 37-190); experiment: as above
T2 construct: also called marIL-18
T2 sequence: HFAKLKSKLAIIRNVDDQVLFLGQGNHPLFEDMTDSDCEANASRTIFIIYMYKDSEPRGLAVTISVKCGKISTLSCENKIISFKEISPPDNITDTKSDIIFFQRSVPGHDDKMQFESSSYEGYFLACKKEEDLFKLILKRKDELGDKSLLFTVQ

[2] = target: T3, Recombinant marmoset IL-1β (marmoset, UniProt U3E018 117-268); experiment: cell-based or functional assay
Recombinant human IL-1β = target: T4, Recombinant human IL-1β (human, UniProt P01584 117-269); experiment: SET simultaneous target binding, Assay B (both targets in serial dilutions in one mix), ECL read-out
T4 construct: also called huIL-1β

[3] = target: T3, Recombinant marmoset IL-1β; experiment: as above

- binding result (Recombinant human IL-18): no binding
- binding result [1]: no binding
- IL-6 prod. in dermal fibroblasts stimulated with recombinant marmoset IL-1β (18 pM), IC50, Exp. A (marmoset dermal fibroblasts by the column head) [2]: 95 pM
- IL-6 prod. in dermal fibroblasts stimulated with recombinant marmoset IL-1β (18 pM), IC50, Exp. B (marmoset or human fibroblasts: column heads unclear) [2]: 0.138 nM
- IL-6 prod. in dermal fibroblasts stimulated with recombinant marmoset IL-1β (18 pM), IC50, Exp. C (marmoset or human fibroblasts: column heads unclear) [2]: 0.114 nM
B1: mAb2 (antibody, human IgG1, kappa, V domains shown)
VH: QVQLVESGGGVVQPGRSLRLSCAASGFTFSVYGMNWVRQAPGKGLEWVAIIWYDGDNQYYADSVKGRFTISRDNSKNTLYLQMNGLRAEDTAVYYCARDLRTGPFDYWGQGTLVTVSS
VL: EIVLTQSPDFQSVTPKEKVTITCRASQSIGSSLHWYQQKPDQSPKLLIKYASQSFSGVPSRFSGSGSGTDFTLTINSLEAEDAAAYYCHQSSSLPFTFGPGTKVDIKR
notes: Human monospecific bivalent IgG1 with kappa light chain (Vkappa6); also called IL-1β antibody; anti IL-1β IgG1

- binding result (Recombinant human IL-1β): no binding
- binding result [3]: no binding
B2: mAb1 (antibody, human IgG1, lambda, L234A L235A, V domains shown)
VH: EVQLVQSGAEVKKPGSSVKVSCKASGGTFKSYAISWVRQAPGQGLEWMGNIIPMTGQTYYAQKFQGRVTITADESTSTAYMELSSLRSEDTAVYYCARAAYHPLVFDNWGQGTLVTVSS
VL: DIVLTQPPSVSGAPGQRVTISCSGSSSNIGNHYVNWYQQLPGTAPKLLIYRNNHRPSGVPDRFSGSKSGTSASLAITGLQSEDEADYYCQSWDYSGFSTVFGGGTKLTVLG
notes: Human monospecific bivalent IgG1 with lambda light chain (Vlambda1); also called IL-18 antibody; anti-IL18 IgG1
